# From patent US20240415919A1, “COMPOSITIONS AND METHODS FOR TREATMENT OF AUTOIMMUNE DISORDERS AND CANCER” (Dana-Farber Cancer Institute, Inc., priority 2021, published 2024)
# T1: FL9 self-peptide (source protein not named) peptide on Qa-1b (mouse)
# T1 peptide: FYAEATPML
# T2: FL9-68, synthetic superagonist variant of the FL9 self-peptide (P to L at position 7) peptide on Qa-1b (mouse)
# T2 peptide: FYAEATLML
# T3: Hsp60 (Hsp60p216) peptide on Qa-1b (mouse)
# T3 peptide: GMKFDRGYI
# Legend:
# [1] = molecular target: Ly49F (mouse) (UniProt Q60653); test: cell-based or functional assay
# [2] = system: Balb/C heart allografts; test: Balb/C heart transplantation into skin-sensitized B6 hosts after peptide vaccination; conditions: immunized hosts, FIG. 11B
# [3] = system: FL9.2 T cells; test: FL9 peptide immunization of hosts adoptively transferred with FL9.2 T cells; type: in vivo, mouse
# Protocol: CD45.1+B6 hosts were adoptively transferred with FL9.2 T cells and immunized i.p. with FL9 in CFA or no peptide (CFA alone) on day 0. Three days later, activation (CD69) proliferation of FL9.2 T cells (Ki67) was measured.
# (§1) CD45.1^+ B6 or TCRα^−/− mice were transferred with CFSE labelled 2×10^6 FL9.2 Tg T cells followed by i.p. immunization with 100 μg FL9 or FL9-68 peptides in CFA. Proliferation and activation of FL9.2 Tg T cells in the adoptive hosts were analzyed by assessing CFSE dilution, Ki67 and CD69 expression at day 3 and 6 after transfer.
# as §1, with “CD45.1^+B6” for “CD45.1^+ B6”
# [4] = molecular target: T1, FL9 self-peptide (source protein not …); test: multimer staining
# [5] = molecular target: T2, FL9-68, synthetic superagonist variant …; test: activation reporter or marker
# [6] = molecular target: T3, Hsp60 (Hsp60p216) peptide on Qa-1b; test: multimer staining
# [7] = molecular target: T1, FL9 self-peptide (source protein not …); test: Kd or kinetics
# Sequence of Ly49F (mouse) (Q60653 whole entry): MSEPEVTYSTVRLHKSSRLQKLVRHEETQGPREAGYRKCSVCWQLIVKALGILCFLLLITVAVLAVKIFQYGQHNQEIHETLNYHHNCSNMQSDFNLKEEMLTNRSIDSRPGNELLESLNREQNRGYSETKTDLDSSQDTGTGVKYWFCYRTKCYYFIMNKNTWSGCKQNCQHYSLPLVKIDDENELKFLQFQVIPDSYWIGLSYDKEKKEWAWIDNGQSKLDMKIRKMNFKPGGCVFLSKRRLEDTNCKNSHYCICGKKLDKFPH
binding result [4],Molecule,also measured
,Chimeric anti-Ly49F Ab (HBF-719 with mIgG2a Fc) (antibody),"depletion of Ly49F+ CD8 Treg in spleen, lymphocytes and blood [1]: > 95%"
,"FYAEATPML [FL9, Qa-1-associated self-peptide, reference compound]","expansion of FL9-Qa-1 tetramer binding CD8 Treg (CD44+CD122+Ly49+CD8+T) [2]: 8 fold; in vivo activation/proliferation of transferred FL9 TCR+ CD8 T cells ([3]; i.p. immunization with peptide in CFA, CD45.1+ B6 or TCRα-/- hosts): no in vivo stimulation of FL9.2 T cells; expansion of CD8 Treg after immunization ([3]; immunization of mice with the self-peptide): did not elicit detectable expansion of CD8 Treg"
recognises,"FL9.31 (TCR, V domains shown) Valpha: AQSVTQPDARVTVSEGASLQLRCKYSYFGTPYLFWYVQYPRQGLQLLLKYYPGDPVVQGVNGFEAEFSKSNSSFHLRKASVHWSDWAVYFCAVKDSGYNKLTFGKGTVLLVSP Vbeta: NSGVVQSPRYIIKGKGERSILKCIPISGHLSVAWYQQTQGQELKFFIQHYDKMERDKGNLPSRFSVQQFDDYHSEMNMSALELEDSAVYFCASSLAGREQYFGPGTRLTVL",
no recognition,"FL9.38 (TCR, V domains shown) Valpha: QQKVQQSPESLSVPEGGMASLNCTSSDRNFQYFWWYRQHSGEGPKALMSIFSDGDKKEGRFTAHLNKASLHVSLHIRDSQPSDSALYFCALSESSGSWQLIFGSGTQLTVMP Vbeta: EAAVTQSPRSKVAVTGGKVTLSCHQTNNHDYMYWYRQDTGHGLRLIHYSYVADSTEKGDIPDGYKASRPSQENFSLILELASLSQTAVYFCASRDRGDQNTLYFGAGTRLSVL",
,"FL9.8 TCR (TCR, V domains shown) Valpha: AQSVTQPDARVTVSEGASLQLRCKYSYFGTPYLFWYVQYPRQGLQLLLKYYPGDPVVQGVNGFEAEFSKSNSSFHLRKASVHWSDWAVYFCAVRANYAQGLTFGLGTRVSVFP Vbeta: NSGVVQSPRYIIKGKGERSILKCIPISGHLSVAWYQQTQGQELKFFIQHYDKMERDKGNLPSRFSVQQFDDYHSEMNMSALELEDSAVYFCASSLLGGPSAETLYFGSGTRLTVL",binding result [5]: recognises; binding result [6]: no recognition; binding result [7]: recognises
recognises,"FL9.34 (TCR, V domains shown) Valpha: AQSVTQPDARVTVSEGASLQLRCKYSYFGTPYLFWYVQYPRQGLQLLLKYYPGDPVVQGVNGFEAEFSKSNSSFHLRKASVHWSDWAVYFCAVRGQGGRALIFGTGTTVSVSP Vbeta: NSGVVQSPRYIIKGKGERSILKCIPISGHLSVAWYQQTQGQELKFFIQHYDKMERDKGNLPSRFSVQQFDDYHSEMNMSALELEDSAVYFCASSPGPSQNTLYFGAGTRLSVL",
,"FL9.2 TCR (TCR, V domains shown) Valpha: AQSVTQPDARVTVSEGASLQLRCKYSYFGTPYLFWYVQYPRQGLQLLLKYYPGDPVVQGVNGFEAEFSKSNSSFHLRKASVHWSDWAVYFCAVRANTGKLTFGDGTVLTVKP Vbeta: DSGVVQSPRHIIKEKGGRSVLTCIPISGHSNVVWYQQTLGKELKFLIQHYEKVERDKGFLPSRFSVQQFDDYHSEMNMSALELEDSAMYFCASSPRLASAETLYFGSGTRLTVL",binding result [5]: recognises
recognises,"FL9.43 (TCR, V domains shown) Valpha: AQSVTQPDARVTVSEGASLQLRCKYSYFGTPYLFWYVQYPRQGLQLLLKYYPGDPVVQGVNGFEAEFSKSNSSFHLRKASVHWSDWAVYFCAVKSTGSKLSFGKGAKLTVSP Vbeta: NSGVVQSPRYIIKGKGERSILKCIPISGHLSVAWYQQTQGQELKFFIQHYDKMERDKGNLPSRFSVQQFDDYHSEMNMSALELEDSAVYFCASSPRLGSAETLYFGSGTRLTVL",
recognises,"FL9.5 (TCR, V domains shown) Valpha: AQSVTQPDARVTVSEGASLQLRCKYSYFGTPYLFWYVQYPRQGLQLLLKYYPGDPVVQGVNGFEAEFSKSNSSFHLRKASVHWSDWAVYFCAVKGGNYKPTFGKGTSLVVHP Vbeta: NSGVVQSPRYIIKGKGERSILKCIPISGHLSVAWYQQTQGQELKFFIQHYDKMERDKGNLPSRFSVQQFDDYHSEMNMSALELEDSAVYFCASSLTGAYEQYFGPGTRLTVL",
recognises,"FL9.30 (TCR, V domains shown) Valpha: AQSVTQPDARVTVSEGASLQLRCKYSYFGTPYLFWYVQYPRQGLQLLLKYYPGDPVVQGVNGFEAEFSKSNSSFHLRKASVHWSDWAVYFCAVSSNNAGAKLTFGGGTRLTVRP Vbeta: DSGVVQSPRHIIKEKGGRSVLTCIPISGHSNVVWYQQTLGKELKFLIQHYEKVERDKGFLPSRFSVQQFDDYHSEMNMSALELEDSAMYFCASSRRPASAETLYFGSGTRLTVL",
recognises,"FL9.41 (TCR, V domains shown) Valpha: AQSVTQPDARVTVSEGASLQLRCKYSYFGTPYLFWYVQYPRQGLQLLLKYYPGDPVVQGVNGFEAEFSKSNSSFHLRKASVHWSDWAVYFCAVSIWATSSGQKLVFGQGTILKVYL Vbeta: VTLLEQNPRWRLVPRGQAVNLRCILKNSQYPWMSWYQQDLQKQLQWLFTLRSPGDKEVKSLPGADYLATRVTDTELRLQVANMSQGRTLYCTCSARQGSGNTLYFGEGSRLIVV",
no recognition,"FL9.15 (TCR, V domains shown) Valpha: GDSVTQTEGPVTVSESESLIINCTYSATSIAYPNLFWYVRYPGEGLQLLLKVITAGQKGSSRGFEATYNKETTSFHLQKASVQESDSAVYYCALGEASSGSWQLIFGSGTQLTVMP Vbeta: DSGVVQSPRHIIKEKGGRSVLTCIPISGHSNVVWYQQTLGKELKFLIQHYEKVERDKGFLPSRFSVQQFDDYHSEMNMSALELEDSAMYFCASSLGQGNYAEQFFGPGTRLTVL",
recognises,"FL9.35 (TCR, V domains shown) Valpha: AQSVTQPDARVTVSEGASLQLRCKYSYFGTPYLFWYVQYPRQGLQLLLKYYPGDPVVQGVNGFEAEFSKSNSSFHLRKASVHWSDWAVYFCAVSMMGYKLTFGTGTSLLVDP Vbeta: DSGVVQSPRHIIKEKGGRSVLTCIPISGHSNVVWYQQTLGKELKFLIQHYEKVERDKGFLPSRFSVQQFDDYHSEMNMSALELEDSAMYFCASSRTGGSAETLYFGSGTRLTVL",
recognises,"FL9.40 (TCR, V domains shown) Valpha: AQSVTQPDARVTVSEGASLQLRCKYSYFGTPYLFWYVQYPRQGLQLLLKYYPGDPVVQGVNGFEAEFSKSNSSFHLRKASVHWSDWAVYFCAVTRYGSSGNKLIFGIGTLLSVKP Vbeta: DSGVVQSPRHIIKEKGGRSVLTCIPISGHSNVVWYQQTLGKELKFLIQHYEKVERDKGFLPSRFSVQQFDDYHSEMNMSALELEDSAMYFCASSPRLGSAETLYFGSGTRLTVL",
recognises,"FL9.26 (TCR, V domains shown) Valpha: AQSVTQPDARVTVSEGASLQLRCKYSYFGTPYLFWYVQYPRQGLQLLLKYYPGDPVVQGVNGFEAEFSKSNSSFHLRKASVHWSDWAVYFCAVSTGGYKVVFGSGTRLLVSP Vbeta: NSGVVQSPRYIIKGKGERSILKCIPISGHLSVAWYQQTQGQELKFFIQHYDKMERDKGNLPSRFSVQQFDDYHSEMNMSALELEDSAVYFCASSHRSFSGNTLYFGEGSRLIVV",
